Results: patent US20240352439, “POLYPEPTIDES AND METHODS FOR MODIFYING NUCLEIC ACIDS” (THE UNIVERSITY OF CHICAGO, published 2024)

B1: TA probe (ssDNA)
DNA: TGGGTTGGTTATCGTTTGGTGG
B2: GA probe (ssDNA)
DNA: TGGGTTGGTGATCGTTTGGTGG

Key:
Assay in all cases: kapp, same conditions
TadA8r (TadA-RA5.2) = TadA8r (TadA-RA5.2) (Escherichia coli); settings: tags: 6xHis-MBP removed by TEV; label: 5'-FAM
Text: (§1) We compared adenine deamination efficiency of TadA8r in ssDNA with TadA8.20 and TadA8e. Maltose binding protein (MBP) fused TadA8r, TadA8.20, and TadA8e were purified through immobilized metal affinity chromatography. A Tobacco Etch Virus (TEV) protease cutting site was installed between MBP and TadA*. After TEV proteinase treatment, TadA8r, TadA8.20, and TadA8e were purified by immobilized metal affinity chromatography, ion-exchange chromatography, and size-exclusion chromatography. DNA deamination assays were carried out using […] ssDNA oligos under single-turnover conditions. A-to-I conversion was measured to determine the apparent first-order deamination rate constant (kₐₚₚ) (FIG. 2a). Both TadA8.20 and TadA8e preferred TA over GA (kₐₚₚ=0.07 min⁻¹ and 0.08 min⁻¹ for TadA 8.20 on GA and TA probes, respectively; kₐₚₚ=0.01 min⁻¹ and 0.02 min⁻¹ for TadA8e on GA and TA probes, respectively). The kₐₚₚ for TadA8r is much higher—0.55 min⁻¹ on the GA probe and 0.39 min⁻¹, on the TA probe).
(§2) The single turnover DNA deamination reactions containing 4 uM TadA variants in deamination buffer (50 mM Tris, 25 mM KCl, 2.5 mM MgCl₂, 2 mM dithiothreitol, and 10% (v/v) glycerol; pH 7.5) and 5′ Fluorescein labeled ssDNA (IDT) (Supplementary Table 6) to a final concentration of 200 nM. All reactions were incubated at 37° C. At various time points (0, 1, 5, 10, 20, 60, 180 mins), 10 uL reaction mixture were aliquoted and quenched by adding 10 ul of hot water and incubating at 95° C. for 10 min. Reaction mixtures were supplied with 100 ug/ml Proteinase K (Fisher scientific) and incubated at 55° C. for 3 h followed by inactivating at 85° C. for 30 mins and 95° C. for 15 mins. To detected adenosine deamination, reaction mixture was incubated with 10 unit of E. coli EndonucleaseV in 1×NEB4 buffer at 37° C. for 1 h. After cleavage by EndoV, samples were mixed with 2-fold PAGE gel loading buffer (95% formamide, 10 mM EDTA, 0.025% SDS), heated at 95° C. for 5 min, resolved on 15% (v/v) denaturing polyacrylamide gel. Uncleavage substrate and cleavage product were visualized by ChemiDoc XRS+(Bio-rad) under fluorescein channel. DNA band quantification were analyzed using ImageJ Software. Curve fitting was done in GraphPad.

TadA8e = TadA8e (Escherichia coli); settings: tags: MBP removed by TEV; label: 5'-FAM
Text: as §1, §2

TadA8.20 = TadA8.20 (Escherichia coli, UniProt P68398 SEQ:1-167); settings: tags: MBP removed by TEV; label: 5'-FAM
Text: as §1, §2

Row | Binder | activity (TadA8r (TadA-RA5.2)) [min⁻¹] | activity (TadA8e) [min⁻¹] | activity (TadA8.20) [min⁻¹]
1 | B1 | 0.39 | 0.02 | 0.08
2 | B2 | – | 0.01 | 0.07
